The results in this text go back to article doi:10.1101/2023.11.28.568818 (bioRxiv, 2023).

This series deals with the molecule itself. Kind of series: ThT fluorescence + negative stain TEM.
As to DNIKHVPGGGSVQIVYKPV [jR2R3 peptide (tau residues 295-313)], the binding result is recorded as “binds”. On to VLGGGSVQIVYKPV [jΔR3-P301L peptide (tau 300-313 with P301L)], for which the binding result is “binds”. As for VPGGGSVQIVYKPV [jΔR3 peptide (C-terminal half of jR2R3, tau 300-313)], the entry is “binds”.
